# Data taken from paper doi:10.1101/2025.03.09.641110 (bioRxiv, 2025).
# Molecular target: extracellular domain of human PD-1 (Programmed cell death protein 1) (Homo sapiens, UniProt Q15116)
# Assay: SPR
# extracellular domain of human PD-1 (Programmed cell death protein 1), sequence (Q15116 25-170): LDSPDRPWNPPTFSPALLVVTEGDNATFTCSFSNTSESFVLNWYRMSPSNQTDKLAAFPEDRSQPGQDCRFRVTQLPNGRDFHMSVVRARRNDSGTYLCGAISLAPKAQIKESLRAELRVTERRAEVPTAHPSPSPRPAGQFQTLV
row,Binder,Kd [nM]
1,"ALX07xh-05 (direct CDR-grafted humanized ALX07) (antibody, V domains shown) VH: QVTLKESGPALVKPTQTLTLTCTFSGFSLSTSALGVGWIRQPPGKALEWLAHIWWNDVKRSNPALKGRLTISKDTSKNQVVLTMTNMDPVDTATYYCARSYGNHWYFDVWGQGTLVTVSS VL: DIVMTQSPDSLAVSLGERATINCKASQSVSNDVAWYQQKPGQPPKLLIYYAFTRYIGVPDRFSGSGSGTDFTLTISSLQAEDVAVYYCQQDYISPYTFGQGTKLEIK",140
2,"humanized ALX07 (CDR graft) with the S67Y back mutation in the light chain alone (antibody, V domains shown) VH: QVTLKESGPALVKPTQTLTLTCTFSGFSLSTSALGVGWIRQPPGKALEWLAHIWWNDVKRSNPALKGRLTISKDTSKNQVVLTMTNMDPVDTATYYCARSYGNHWYFDVWGQGTLVTVSS VL: DIVMTQSPDSLAVSLGERATINCKASQSVSNDVAWYQQKPGQPPKLLIYYAFTRYIGVPDRFSGSGYGTDFTLTISSLQAEDVAVYYCQQDYISPYTFGQGTKLEIK",2.01
3,"chimeric ALX07 (murine ALX07 variable regions, IgG4 chimeric antibody) (antibody, V domains shown) VH: QVTLKESGPGILQPSQTLSLTCSFSGFSLSTSALGVGWIRQPPGKGLVWLAHIWWNDVKRSNPALKGRLTISKDTSSSQVFLNIANVDTADTATYYCARSYGNHWYFDVWGAGTTVTVSS VL: SVVMTQTPKFLLVSAGDRVTIACKASQSVSNDVAWFQQKPGQSPKLLIYYAFTRYIGVPDRFTASGYGTDFTFTISTVQAEDLAIYFCQQDYISPYTFGGGTKLEIK",1.31
